The target of assay [1] is T1, huTNC (recombinant human TnC antigen) (human, UniProt P24821 984-1798, biotin on the C-terminal avi-tag where used biotinylated (Examples 5 and 10)).
T1 sequence: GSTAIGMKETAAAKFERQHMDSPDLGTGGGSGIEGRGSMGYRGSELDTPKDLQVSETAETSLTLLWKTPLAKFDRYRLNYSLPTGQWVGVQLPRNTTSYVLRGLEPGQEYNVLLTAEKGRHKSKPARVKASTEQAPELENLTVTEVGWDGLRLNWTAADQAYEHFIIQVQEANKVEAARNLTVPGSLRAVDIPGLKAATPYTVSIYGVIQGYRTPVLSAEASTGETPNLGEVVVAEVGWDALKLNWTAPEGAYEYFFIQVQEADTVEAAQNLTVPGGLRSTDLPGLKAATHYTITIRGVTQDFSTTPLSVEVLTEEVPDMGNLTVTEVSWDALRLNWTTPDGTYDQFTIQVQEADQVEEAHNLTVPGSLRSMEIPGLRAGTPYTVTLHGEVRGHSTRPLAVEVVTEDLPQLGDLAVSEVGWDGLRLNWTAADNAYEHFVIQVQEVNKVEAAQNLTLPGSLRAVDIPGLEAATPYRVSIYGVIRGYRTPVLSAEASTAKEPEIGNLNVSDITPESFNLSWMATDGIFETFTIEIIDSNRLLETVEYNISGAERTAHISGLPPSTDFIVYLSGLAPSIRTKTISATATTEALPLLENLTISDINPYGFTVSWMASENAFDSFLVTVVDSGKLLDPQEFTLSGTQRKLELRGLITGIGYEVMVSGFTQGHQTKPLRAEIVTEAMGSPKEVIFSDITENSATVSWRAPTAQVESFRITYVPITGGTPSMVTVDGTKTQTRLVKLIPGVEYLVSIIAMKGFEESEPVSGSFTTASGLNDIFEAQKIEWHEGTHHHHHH
Kind of assay: SPR Biacore T200, biotinylated TnC on SA chip, IgG as analyte, 1:1 fit (apparent, bivalent). The protocol:
(§1) Binding of the anti-TnC IgGs 18D4, 11C7 and the Fab fragment of anti-TnC 18D4 to human, murine and cynomolgus TnC (antigens according to Table 4) was assessed by surface plasmon resonance (SPR). All SPR experiments were performed on a Biacore T200 at 25° C. with HBS-EP as running buffer (0.01 M HEPES pH 7.4, 0.15 M NaCl, 3 mM EDTA, 0.005% Surfactant P20, Biacore, Freiburg/Germany).
(§2) A 20 μg/ml stock solution of biotinylated human, murine or cynomolgus TnC was injected on a SA chip, with the aim to immobilize up to 100 RU using the immobilization wizard function.
(§3) An additional dissociation step of 1800s was performed for the highest concentration of IgG. After each step the surface was regenerated following two sequential injections of 10 mM glycine pH2.1 for 60 s. Bulk refractive index differences were corrected for by subtracting the response obtained in a reference flow cell without TNC. Affinity and avidity were calculated using the Langmuir 1:1 kinetic model. However, as the KD for the 1:1 fitting of bivalent interactions is an apparent value only, it should only be used for comparisons.
On the technique in general: SPR reads the build-up and loss of mass on a sensor chip optically.

Assay [2] addresses T2, GST TNC hu fn5 B-C fn6 B (human, biotin on the C-terminal avi-tag (BirA, site-specific)).
T2 chain: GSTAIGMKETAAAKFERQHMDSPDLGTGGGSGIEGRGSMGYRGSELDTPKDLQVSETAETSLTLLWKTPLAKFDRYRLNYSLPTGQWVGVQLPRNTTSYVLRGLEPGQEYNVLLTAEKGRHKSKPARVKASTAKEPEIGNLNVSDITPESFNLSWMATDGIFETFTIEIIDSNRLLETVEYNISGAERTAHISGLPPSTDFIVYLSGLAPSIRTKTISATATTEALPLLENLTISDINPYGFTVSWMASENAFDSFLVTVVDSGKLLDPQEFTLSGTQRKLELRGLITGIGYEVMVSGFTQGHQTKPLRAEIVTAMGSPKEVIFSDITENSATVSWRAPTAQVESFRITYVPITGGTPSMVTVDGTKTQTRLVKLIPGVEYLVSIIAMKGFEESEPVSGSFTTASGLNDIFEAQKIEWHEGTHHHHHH
Description: SPR ProteOn XPR36, biotinylated antigen on NLC chip, Fab as analyte, 25 C. How it is done: (§4) Immobilization of antigens (ligand): Recombinant antigens were diluted with PBST (10 mM phosphate, 150 mM sodium chloride pH 7.4, 0.005% Tween 20) to 10 μg/ml, then injected at 30 μl/minute in vertical orientation. Injection of analytes: For ‘one-shot kinetics’ measurements, injection direction was changed to horizontal orientation, two-fold dilution series of purified Fab were injected simultaneously along separate channels 1-5, with association times of 200 s, and dissociation times of 240 s, respectively. Buffer (PBST) was injected along the sixth channel to provide an “in-line” blank for referencing. Association rate constants (kₒₙ) and dissociation rate constants (koff) were calculated using a simple one-to-one Langmuir binding model in ProteOn Manager v3.1 software by simultaneously fitting the association and dissociation sensorgrams. The equilibrium dissociation constant (KD) was calculated as the ratio koff/kₒₙ.

In assay [3] the target is T3, GST huTNC fn5 A1234 BC fn6 B (human, UniProt P24821 984-1798, biotin on the C-terminal avi-tag (BirA, site-specific)).
T3 construct: also called Human GST-fused TnC fn5 A1234 BC fn6
T3 sequence: T1 sequence
Described as above. How it is done: as §4

Assay [4] deals with T4, muTNC (recombinant murine TnC antigen) (mouse, biotin on the C-terminal avi-tag where used biotinylated (Example 5)).
T4 construct: GST may have been cleaved off by thrombin; The text says this construct lacks the C domain; also called mouse TnC
T4 chain: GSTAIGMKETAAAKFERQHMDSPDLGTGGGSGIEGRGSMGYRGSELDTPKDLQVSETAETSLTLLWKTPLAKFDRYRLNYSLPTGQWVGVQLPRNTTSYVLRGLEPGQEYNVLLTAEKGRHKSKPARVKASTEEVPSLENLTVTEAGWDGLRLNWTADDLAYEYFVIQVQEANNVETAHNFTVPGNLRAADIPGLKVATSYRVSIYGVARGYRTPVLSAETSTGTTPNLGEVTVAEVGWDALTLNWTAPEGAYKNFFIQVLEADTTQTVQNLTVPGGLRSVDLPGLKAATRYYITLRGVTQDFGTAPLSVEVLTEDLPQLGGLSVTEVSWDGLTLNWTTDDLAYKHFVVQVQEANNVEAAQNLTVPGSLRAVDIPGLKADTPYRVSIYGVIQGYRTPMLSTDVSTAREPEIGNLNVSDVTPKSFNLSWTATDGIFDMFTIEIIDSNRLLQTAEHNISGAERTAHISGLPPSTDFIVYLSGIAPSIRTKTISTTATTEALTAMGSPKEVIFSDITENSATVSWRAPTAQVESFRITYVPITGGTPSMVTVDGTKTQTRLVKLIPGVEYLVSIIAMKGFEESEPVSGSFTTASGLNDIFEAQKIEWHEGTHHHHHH
Description: SPR Biacore T200, biotinylated TnC on SA chip, IgG as analyte, 1:1 fit (apparent, bivalent). How it is done: as §1, §2, §3

In assay [5] the target is T5, cynoTNC (recombinant cynomolgus TnC antigen) (cynomolgus, biotin on the C-terminal avi-tag where used biotinylated (Example 5)).
T5 construct: GST may have been cleaved off by thrombin; The text says this construct lacks the C domain
T5 chain: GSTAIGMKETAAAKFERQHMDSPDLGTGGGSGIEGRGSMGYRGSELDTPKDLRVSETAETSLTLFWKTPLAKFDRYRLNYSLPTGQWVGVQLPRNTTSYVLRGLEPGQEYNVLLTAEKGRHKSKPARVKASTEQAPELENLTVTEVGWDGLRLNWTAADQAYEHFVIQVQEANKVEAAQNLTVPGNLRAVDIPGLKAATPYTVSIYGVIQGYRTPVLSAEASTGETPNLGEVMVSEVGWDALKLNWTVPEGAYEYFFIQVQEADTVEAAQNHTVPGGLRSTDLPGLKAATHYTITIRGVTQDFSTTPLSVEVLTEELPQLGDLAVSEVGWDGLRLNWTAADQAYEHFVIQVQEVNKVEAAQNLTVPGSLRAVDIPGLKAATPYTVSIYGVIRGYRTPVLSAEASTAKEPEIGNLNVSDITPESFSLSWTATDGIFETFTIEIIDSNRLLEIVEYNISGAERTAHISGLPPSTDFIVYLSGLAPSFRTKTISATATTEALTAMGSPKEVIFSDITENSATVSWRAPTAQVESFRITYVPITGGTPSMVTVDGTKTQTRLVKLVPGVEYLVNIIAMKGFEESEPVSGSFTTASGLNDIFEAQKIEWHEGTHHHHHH
The assay is described as above. How it is done: as §1, §2, §3

The target of assay [6] is T6, human TnC on TnC-expressing U87-MG glioblastoma cells (human, UniProt P24821 23-2201).
T6 construct: whole, on cells; also called human-TnC expressing U87-MG
Description: flow cytometry on TnC-expressing U87-MG cells. A general note: In flow cytometry, cells or beads pass a laser one at a time.

Data on 4 molecules can be found in US20190248877A1 (Hoffmann-La Roche, published 2019).

T6 sequence (P24821 23-2201): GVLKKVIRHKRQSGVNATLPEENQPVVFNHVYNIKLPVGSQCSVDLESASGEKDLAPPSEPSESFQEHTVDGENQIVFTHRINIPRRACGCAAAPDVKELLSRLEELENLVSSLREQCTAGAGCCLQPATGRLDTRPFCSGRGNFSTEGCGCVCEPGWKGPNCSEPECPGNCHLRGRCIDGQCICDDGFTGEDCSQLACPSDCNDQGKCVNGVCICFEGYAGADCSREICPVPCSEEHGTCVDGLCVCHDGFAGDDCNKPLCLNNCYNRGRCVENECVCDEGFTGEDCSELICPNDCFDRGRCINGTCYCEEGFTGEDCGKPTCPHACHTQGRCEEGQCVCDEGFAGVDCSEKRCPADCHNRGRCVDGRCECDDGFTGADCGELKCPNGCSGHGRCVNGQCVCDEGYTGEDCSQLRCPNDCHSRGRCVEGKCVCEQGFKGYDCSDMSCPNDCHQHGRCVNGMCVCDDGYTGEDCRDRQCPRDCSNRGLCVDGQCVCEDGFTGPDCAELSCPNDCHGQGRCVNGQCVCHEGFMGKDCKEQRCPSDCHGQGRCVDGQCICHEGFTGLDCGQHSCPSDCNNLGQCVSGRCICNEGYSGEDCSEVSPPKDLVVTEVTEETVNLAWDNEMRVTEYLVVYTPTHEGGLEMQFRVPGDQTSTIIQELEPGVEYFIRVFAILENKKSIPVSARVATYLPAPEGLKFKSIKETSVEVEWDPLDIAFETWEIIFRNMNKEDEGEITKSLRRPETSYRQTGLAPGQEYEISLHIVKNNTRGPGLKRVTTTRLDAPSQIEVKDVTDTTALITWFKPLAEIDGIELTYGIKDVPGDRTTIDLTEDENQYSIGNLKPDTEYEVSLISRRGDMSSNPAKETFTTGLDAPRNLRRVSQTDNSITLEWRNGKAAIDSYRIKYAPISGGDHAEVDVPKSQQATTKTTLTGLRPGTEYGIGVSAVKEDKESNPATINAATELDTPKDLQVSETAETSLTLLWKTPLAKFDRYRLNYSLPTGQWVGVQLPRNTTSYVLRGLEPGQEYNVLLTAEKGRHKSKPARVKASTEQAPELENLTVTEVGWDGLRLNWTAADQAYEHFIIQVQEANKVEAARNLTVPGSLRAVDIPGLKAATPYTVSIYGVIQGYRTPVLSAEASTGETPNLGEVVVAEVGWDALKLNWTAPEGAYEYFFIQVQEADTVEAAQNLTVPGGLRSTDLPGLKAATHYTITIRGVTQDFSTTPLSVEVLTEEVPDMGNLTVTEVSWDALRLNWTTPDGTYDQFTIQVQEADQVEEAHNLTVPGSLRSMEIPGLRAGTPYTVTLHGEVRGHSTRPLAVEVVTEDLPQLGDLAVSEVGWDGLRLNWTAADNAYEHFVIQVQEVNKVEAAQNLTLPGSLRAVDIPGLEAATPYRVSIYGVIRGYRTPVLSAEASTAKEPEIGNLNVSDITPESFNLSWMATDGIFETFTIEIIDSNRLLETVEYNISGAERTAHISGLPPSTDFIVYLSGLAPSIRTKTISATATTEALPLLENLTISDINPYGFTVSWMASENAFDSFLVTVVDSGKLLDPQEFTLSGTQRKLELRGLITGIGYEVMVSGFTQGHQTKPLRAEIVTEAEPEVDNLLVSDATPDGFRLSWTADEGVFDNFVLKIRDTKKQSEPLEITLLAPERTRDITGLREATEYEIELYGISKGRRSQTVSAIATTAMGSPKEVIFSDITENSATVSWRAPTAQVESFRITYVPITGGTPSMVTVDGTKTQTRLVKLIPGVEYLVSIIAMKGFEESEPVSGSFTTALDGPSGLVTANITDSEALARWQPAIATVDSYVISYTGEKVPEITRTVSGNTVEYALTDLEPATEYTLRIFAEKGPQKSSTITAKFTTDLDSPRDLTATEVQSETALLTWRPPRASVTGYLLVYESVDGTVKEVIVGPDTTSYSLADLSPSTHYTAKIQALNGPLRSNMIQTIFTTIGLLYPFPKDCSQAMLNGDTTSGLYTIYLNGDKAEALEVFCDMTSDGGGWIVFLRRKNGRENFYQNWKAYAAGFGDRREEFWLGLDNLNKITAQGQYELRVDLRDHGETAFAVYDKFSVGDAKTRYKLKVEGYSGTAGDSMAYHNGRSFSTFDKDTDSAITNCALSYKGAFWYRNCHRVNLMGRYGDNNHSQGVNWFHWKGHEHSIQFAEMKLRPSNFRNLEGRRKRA

B1: anti-TnC clone 11C7 rabbit IgG (antibody, V domains shown)
VH: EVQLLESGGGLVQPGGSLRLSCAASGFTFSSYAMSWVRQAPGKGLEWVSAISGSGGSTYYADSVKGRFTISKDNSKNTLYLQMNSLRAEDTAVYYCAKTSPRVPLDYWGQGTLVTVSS
VL: SSELTQDPAVSVALGQTVRVTCQGDSLRSYYASWYQQKPGQAPVLVIYGKNNRPSGIPDRFSGSSSGNTASLTITGAQAEDEADYYCNSINSTRNEVFGGGTKLTVL
notes: also called llC7 rb IgG; 11C7 (rb IgG)
As for B1, the Kd in assay [1] amounted to 0.029 nM.

B2: anti-TnC clone 11C7 Fab (Fab, V domains shown)
VH: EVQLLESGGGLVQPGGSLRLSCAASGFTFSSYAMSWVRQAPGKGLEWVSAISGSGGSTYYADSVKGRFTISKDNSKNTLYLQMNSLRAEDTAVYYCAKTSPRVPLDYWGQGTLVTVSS
VL: B1 VL
notes: Bacterially expressed purified Fab from the lambda-DP47 phage library format (lambda CL, CH1, tags)
Turning to B2, the Kd in assay [2] came to 1 nM; in assay [3], 2.3 nM.

B3: anti-TnC 18D4 wild type human IgG1 (antibody)
heavy: not shown
light: DIQMTQSPSTLSASVGDRVTITCRASQSISSWLAWYQQKPGKAPKLLIYDASSLESGVPSRFSGSGSGTEFTLTISSLQPDDFATYYCQQNKKFPSGTFGQGTKVEIKRTVAAPSVFIFPPSDEQLKSGTASVVCLLNNFYPREAKVQWKVDNALQSGNSQESVTEQDSKDSTYSLSSTLTLSKADYEKHKVYACEVTHQGLSSPVTKSFNRGEC
notes: also called 18D4 IgG wt Fc; a-TnC(18D4) huIgG1
As for B3, the Kd came out at 0.061 nM in assay [4], 0.093 nM in assay [1] and 0.036 nM in assay [5].

B4: anti-TnC(18D4) huIgG1 P329G LALA (antibody)
heavy: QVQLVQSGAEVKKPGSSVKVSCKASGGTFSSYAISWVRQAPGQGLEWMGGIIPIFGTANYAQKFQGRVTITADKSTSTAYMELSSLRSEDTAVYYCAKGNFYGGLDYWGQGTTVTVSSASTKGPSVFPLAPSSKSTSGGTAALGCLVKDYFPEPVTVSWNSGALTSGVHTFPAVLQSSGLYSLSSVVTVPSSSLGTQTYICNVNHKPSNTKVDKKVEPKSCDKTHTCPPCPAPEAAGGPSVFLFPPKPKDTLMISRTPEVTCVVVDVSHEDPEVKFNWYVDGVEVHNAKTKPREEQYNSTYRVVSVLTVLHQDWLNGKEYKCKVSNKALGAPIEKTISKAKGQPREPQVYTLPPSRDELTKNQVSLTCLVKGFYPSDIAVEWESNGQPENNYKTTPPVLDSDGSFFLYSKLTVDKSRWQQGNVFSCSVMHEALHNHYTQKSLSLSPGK
light: B3 light
notes: also called 18D4 IgG PG/LALA; 18D4 IgG PGLALA
As a reminder, the EC50 is the midpoint of the concentration-response curve. For B4, the Kd in assay [4] amounted to 0.03 nM; in assay [1], 0.032 nM; in assay [5], 0.011 nM. In assay [6], this molecule yielded an EC50 of 4.24 nM.
